# According to patent US20060172360:
# B1: FLAG-PAK4 (human p21-activated kinase 4 ligated with FLAG-tag at its N-terminus) (protein)
# chain: MFGKRKKRVEISAPSNFEHRVHTGFDQHEQKFTGLPRQWQSLIEESARRPKPLVDPACITSIQPGAPKTIVRGSKGAKDGALTLLLDEFENMSVTRSNSLRRDSPPPPARARQENGMPEEPATTARGGPGKAGSRGRFAGHSEAGGGSGDRRRAGPEKRPKSSREGSGGPQESSRDKRPLSGPDVGTPQPAGLASGAKLAAGRPFNTYPRADTDHPSRGAQGEPHDVAPNGPSAGGLAIPQSSSSSSRPPTRARGAPSPGVLGPHASEPQLAPPACTPAAPAVPGPPGPRSPQREPQRVSHEQFRAALQLVVDPGDPRSYLDNFIKIGEGSTGIVCIATVRSSGKLVAVKKMDLRKQQRRELLFNEVVIMRDYQHENVVEMYNSYLVGDELWVVMEFLEGGALTDIVTHTRMNEEQIAAVCLAVLQALSVLHAQGVIHRDIKSDSILLTHDGRVKLSDFGFCAQVSKEVPRRKSLVGTPYWMAPELISRLPYGPEVDIWSLGIMVIEMVDGEPPYFNEPPLKAMKMIRDNLPPRLKNLHKVSPSLKGFLDRLLVRDPAQRATAAELLKHPFLAKAGPPASIVPLMRQNRTR
# B2: HA-JIK (human JNK/SAPK-inhibitory kinase ligated with HA-tag at its N-terminus) (protein)
# chain: MRKGVLKDPEIADLFYKDDPEELFIGLHEIGHGSFGAVYFATNAHTSEVVAIKKMSYSGKQTHEKWQDILKEVKFLRQLKHPNTIEYKGCYLKEHTAWLVMEYCLGSASDLLEVHKKPLQEVEIAAITHGALHGLAYLHSHALIHRDIKAGNILLTEPGQVKLADFGSASMASPANSFVGTPYWMAPEVILAMDEGQYDGKVDIWSLGITCIELAERKPPLFNMNAMSALYHIAQNDSPTLQSNEWTDSFRRFVDYCLQKIPQERPTSAELLRHDFVRRDRPLRVLIDLIQRTKDAVRELDNLQYRKMKKILFQETRNGPLNESQEDEEDSEHGTSLNREMDSLGSNHSIPSMSVSTGSQSSSVNSMQEVMDESSSELVMMHDDESTINSSSSVVHKKDHVFIRDEAGHGDPRPEPRPTQSVQSQALHYRNRERFATIKSASLVTRQIHEHEQENELREQMSGYKRMRRQHQKQLIALENKLKAEMDEHRLKLQKEVETHANNSSIELEKLAKKQVAIIEKEAKVAAADEKKFQQQILAQQKKDLTTFLESQKKQYKICKEKIKEEMNEDHSTPKKEKQERISKHKENLQHTQAEEEAHLLTQQRLYYDKNCRFFKRKIMIKRHEVEQQNIREELNKKRTQKEMEHAMLIRHDESTRELEYRQLHTLQKLRMDLIRLQHQTELENQLEYNKRRERELHRKHVMELRQQPKNLKAMEMQIKKQFQDTCKVQTKQYKALKNHQLEVTPKNEHKTILKTLKDEQTRKLAILAEQYEQSINEMMASQALRLDEAQEAECQALRLQLQQEMELLNAYQSKIKMQTEAQHERELQKLEQRVSLRRAHLEQKIEEELAALQKERSERIKNLLERQEREIETFDMESLRMGFGNLVTLDFPKEDYR
# Columns and labels:
# [1] = target: GST-MKK7 (unactive/inactive, Upstate) [GST: P08515]
# [2] = target: GST (glutathione S-transferase, negative control substrate) [GST: P08515]
Protein,"in-vitro phosphorylation of the substrate (immune complex phosphorylation method, [γ-32P]ATP, SDS-PAGE, autoradiography) [1]","in-vitro phosphorylation of the substrate (immune complex phosphorylation method, [γ-32P]ATP, SDS-PAGE, autoradiography) [2]"
B1,The phosphorylation of GST-MKK7 by PAK4 was observed,The phosphorylation was not observed when GST was used as a substrate for a negative control
B2,The phosphorylation of GST-MKK7 by JIK was observed,The phosphorylation was not observed when GST was used as a substrate for a negative control
